From patent US20230265179A1 (TWIST BIOSCIENCE, published 2023)

T1: CD40L (UniProt P29965 113-261, limits assumed)
T1 construct: SPR analyte
T1 sequence (looked up): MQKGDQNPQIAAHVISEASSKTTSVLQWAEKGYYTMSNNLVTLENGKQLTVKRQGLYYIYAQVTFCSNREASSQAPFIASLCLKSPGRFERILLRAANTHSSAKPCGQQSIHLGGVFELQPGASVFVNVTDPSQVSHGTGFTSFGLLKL

T2: CD40L over-expressed on Expi293 cells (UniProt P29965 1-261, limits assumed)
T2 construct: whole, on cells; also called cytokine over-expressing Expi293 cells
T2 sequence (looked up): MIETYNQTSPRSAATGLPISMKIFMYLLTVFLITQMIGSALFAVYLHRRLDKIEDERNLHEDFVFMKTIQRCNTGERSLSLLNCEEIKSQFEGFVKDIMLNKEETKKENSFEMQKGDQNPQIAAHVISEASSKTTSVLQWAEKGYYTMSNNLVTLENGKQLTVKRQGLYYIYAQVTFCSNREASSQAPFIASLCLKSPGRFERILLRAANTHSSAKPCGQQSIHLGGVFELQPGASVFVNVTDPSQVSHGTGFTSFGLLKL

T3: IL1RL1 over-expressed on Expi293 cells (UniProt Q01638 19-556, limits assumed)
T3 construct: whole, on cells; Target of the flow cytometry MFI ratio (over-expressing cells over parent cells); also called cytokine over-expressing Expi293 cells
T3 sequence (looked up): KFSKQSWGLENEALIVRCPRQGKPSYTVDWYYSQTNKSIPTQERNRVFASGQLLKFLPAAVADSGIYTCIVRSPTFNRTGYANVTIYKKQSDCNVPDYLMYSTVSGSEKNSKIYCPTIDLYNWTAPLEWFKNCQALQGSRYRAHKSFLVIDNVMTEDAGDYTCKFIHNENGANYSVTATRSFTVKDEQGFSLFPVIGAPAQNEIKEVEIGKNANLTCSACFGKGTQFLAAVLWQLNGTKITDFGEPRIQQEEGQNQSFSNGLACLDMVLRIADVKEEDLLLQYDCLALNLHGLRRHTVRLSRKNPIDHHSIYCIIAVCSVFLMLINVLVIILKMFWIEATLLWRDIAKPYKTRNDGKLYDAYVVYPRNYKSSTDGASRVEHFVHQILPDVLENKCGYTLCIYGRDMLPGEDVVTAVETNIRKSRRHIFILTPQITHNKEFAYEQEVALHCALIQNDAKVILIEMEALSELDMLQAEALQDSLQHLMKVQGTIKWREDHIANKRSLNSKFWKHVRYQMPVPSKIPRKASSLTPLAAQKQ


Assays:
[1] = biological target: T1, CD40L; assay: SPR (Carterra LSA), antibody amine-coupled, 1:1 model
Method: SPR experiments were performed on a Carterra LSA SPR biosensor equipped with a HC30M chip at 25° C. in HBS-TE. Antibodies were diluted to 10 μg/mL and amine-coupled to the sensor chip by EDC/NHS activation, followed by ethanolamine HCl quenching. Increasing concentrations of analyte were flowed over the sensor chip in HBS-TE with 0.5 mg/mL BSA with 5-minute association and 15-minute dissociation. Following each injection cycle the surface was regenerated with 2× 30-second injections of IgG elution buffer (Thermo). Data were analyzed in Carterra's Kinetics Tool software with 1:1 binding model.

[2] = biological target: T2, CD40L over-expressed on Expi293 cells; assay: flow cytometry, 100 nM antibody, CD40L-Expi293 vs parent Expi293 cells;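 also: ratio is the mean fluorescence intensity on CD40L-overexpressing Expi293 cells divided by the mean fluorescence intensity on parental Expi293 cells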
Method: (§1) All incubations and washes were in buffer containing PBS+1% BSA. MFI Ratio is defined by the mean fluorescence intensity (MFI) of the cytokine over-expressing Expi293 cell over the Expi293 parent cell. […] EC50 was calculated in GraphPad Prism.

[3] = biological target: T3, IL1RL1 over-expressed on Expi293 cells; assay: flow cytometry, 100 nM antibody, over-expressing Expi293 / parent cells
Method: as §1

Binder | Kd [1] | koff [1] | kon [1] | 100 nM FACS (MFI Ratio) [2] | 100 nM FACS (MFI Ratio) [3]
CD40L-20 (VHH) VHH: EVQLVESGGGLVQPGGSLRLSCAASGVITLDSNAMGWFRQAPGKEREFVAAITWDGGYTRYADSVKGRFTISADNSKNTAYLQMNSLKPEDTAVYYCAAEATFPTWNRGSEADYDWGQGTLVTVSS | 1.25 nM | 0.000271 s⁻¹ | 217000 M⁻¹ s⁻¹ | 24.6 ratio | –
CD40L-48 (VHH) VHH: EVQLVESGGGLVQPGGSLRLSCAASGFTFSRYEMGWFRQAPGKEREFVAAVTEGGTTSYADSVKGRFTISADNSKNTAYLQMNSLKPEDTAVYYCAAESLGRWWGQGTLVTVSS | 8.48 nM | 0.000998 s⁻¹ | 118000 M⁻¹ s⁻¹ | 68.4 ratio | –
CD40L-41 (VHH) VHH: EVQLVESGGGLVQPGGSLRLSCAASGSTFSKHHAMGWFRQAPGKERELVASISSDNYTVYADSVKGRFTISADNSKNTAYLQMNSLKPEDTAVYYCAREAANYREPPLWGQGTLVTVSS | 8.47 nM | 0.000685 s⁻¹ | 80800 M⁻¹ s⁻¹ | 15.5 ratio | –
CD40L-38 (VHH) VHH: EVQLVESGGGLVQPGGSLRLSCAASGVTFSSYDMGWFRQAPGKEREFVAAINWSGGSRSYADSVKGRFTISADNSKNTAYLQMNSLKPEDTAVYYCAIPRFRPYEYDWGQGTLVTVSS | 8.61 nM | 0.00052 s⁻¹ | 60300 M⁻¹ s⁻¹ | 49 ratio | –
CD40L-35 (VHH) VHH: EVQLVESGGGLVQPGGSLRLSCAASGLTFSSYWMGWFRQAPGKERELVASITDGGSTNYADSVKGRFTISADNSKNTAYLQMNSLKPEDTAVYYCAVQVNGIWAWGQGTLVTVSS | ≤ 0.0842 nM | ≤ 1e-05 s⁻¹ | 119000 M⁻¹ s⁻¹ | 29.5 ratio | –
CD40L-29 (VHH) VHH: EVQLVESGGGLVQPGGSLRLSCAASGRTFSSYAMGWFRQAPGKEREFVAVIYSSDGSTLYADSVKGRFTISADNSKNTAYLQMNSLKPEDTAVYYCAAEHTLGRPSRSQINYLWGQGTLVTVSS | 33.6 nM | 0.000801 s⁻¹ | 23800 M⁻¹ s⁻¹ | 4.7 ratio | –
CD40L-46 (VHH) VHH: EVQLVESGGGLVQPGGSLRLSCAASGFTFSRYEMGWFRQAPGKEREWVASLYLNGDYPYYADSVKGRFTISADNSKNTAYLQMNSLKPEDTAVYYCAIPHGIAGRITWGQGTLVTVSS | 11.5 nM | 0.000576 s⁻¹ | 50200 M⁻¹ s⁻¹ | 45.7 ratio | –
CD40L-24 (VHH) VHH: EVQLVESGGGLVQPGGSLRLSCAASGGAFSVYAMGWFRQAPGKEREFLASISGSGGSTYYADSVKGRFTISADNSKNTAYLQMNSLKPEDTAVYYCARDGGTYGMDVWGQGTLVTVSS | 5.74 nM | 0.000824 s⁻¹ | 143000 M⁻¹ s⁻¹ | 42.7 ratio | –
CD40L-33 (VHH) VHH: EVQLVESGGGLVQPGGSLRLSCAASGNIFINNAMGWFRQAPGKEREFVASIEWDGGGAYYADSVKGRFTISADNSKNTAYLQMNSLKPEDTAVYYCARDGGTYGMDVWGQGTLVTVSS | 2.63 nM | 0.000546 s⁻¹ | 208000 M⁻¹ s⁻¹ | 74.1 ratio | –
CD40L-36 (VHH) VHH: EVQLVESGGGLVQPGGSLRLSCAASGFSLDDYAMGWFRQAPGKEREFVASVNWSGKDTYYADSVKGRFTISADNSKNTAYLQMNSLKPEDTAVYYCARDGGTYGMDVWGQGTLVTVSS | 0.819 nM | 0.000353 s⁻¹ | 431000 M⁻¹ s⁻¹ | 59.2 ratio | –
CD40L-22 (VHH) VHH: EVQLVESGGGLVQPGGSLRLSCAASGVTLDDYAMGWFRQAPGKERELVAAITNGGITTHYADSVKGRFTISADNSKNTAYLQMNSLKPEDTAVYYCAADVGPTVKWGQGTLVTVSS | 1.02 nM | 0.000394 s⁻¹ | 387000 M⁻¹ s⁻¹ | 47.6 ratio | –
CD40L-59 (VHH) VHH: EVQLVESGGGLVQPGGSLRLSCAASGFTLDYYAMGWFRQAPGKERELVASISNGGLSTYYADSVKGRFTISADNSKNTAYLQMNSLKPEDTAVYYCAADVGPTVKWGQGTLVTVSS | 1.27 nM | 0.000315 s⁻¹ | 248000 M⁻¹ s⁻¹ | 66.7 ratio | –
CD40L-47 (VHH) VHH: EVQLVESGGGLVQPGGSLRLSCAASGRTLVNYDMGWFRQAPGKEREFVAAISMSGEDTIYADSVKGRFTISADNSKNTAYLQMNSLKPEDTAVYYCTTGGGTRDYWGQGTLVTVSS | 2.38 nM | 0.000536 s⁻¹ | 225000 M⁻¹ s⁻¹ | 41.8 ratio | –
CD40L-25 (VHH) VHH: EVQLVESGGGLVQPGGSLRLSCAASGFTFSRYEMGWFRQAPGKEREFVAAVTEDGSINYADSVKGRFTISADNSKNTAYLQMNSLKPEDTAVYYCAAVYVSTWGNGYDWGQGTLVTVSS | 1.2 nM | 0.000176 s⁻¹ | 147000 M⁻¹ s⁻¹ | 93.2 ratio | –
CD40L-57 (VHH) VHH: EVQLVESGGGLVQPGGSLRLSCAASGFTFSRYEMGWFRQAPGKEREFVATITEGGARNYADSVKGRFTISADNSKNTAYLQMNSLKPEDTAVYYCAAVYVSTWGNGYDWGQGTLVTVSS | 2.92 nM | 0.000769 s⁻¹ | 263000 M⁻¹ s⁻¹ | 64 ratio | –
CD40L-28 (VHH) VHH: EVQLVESGGGLVQPGGSLRLSCAASGVTVDYSGMGWFRQAPGKEREFVSAISSYSGNTYYADSVKGRFTISADNSKNTAYLQMNSLKPEDTAVYYCAAAYGGGLYRDPRSYDWGQGTLVTVSS | 2.87 nM | 0.000445 s⁻¹ | 155000 M⁻¹ s⁻¹ | 41.9 ratio | –
CD40L-21 (VHH) VHH: EVQLVESGGGLVQPGGSLRLSCAASGRIFSTYFMGWFRQAPGKEREFVAASYTGGSGGSTVYADSVKGRFTISADNSKNTAYLQMNSLKPEDTAVYYCAAWLNGGNRWGQGTLVTVSS | 53.8 nM | 0.00083 s⁻¹ | 15400 M⁻¹ s⁻¹ | 99.2 ratio | –
CD40L-39 (VHH) VHH: EVQLVESGGGLVQPGGSLRLSCAASGGTLDDYVMGWFRQAPGKEREFVASIGRSGNSAVNTDYADSVKGRFTISADNSKNTAYLQMNSLKPEDTAVYYCAREPYSGTYYPRYWGQGTLVTVSS | 0.194 nM | 6.25e-05 s⁻¹ | 322000 M⁻¹ s⁻¹ | 114 ratio | –
CD40L-51 (VHH) VHH: EVQLVESGGGLVQPGGSLRLSCAASGYFASWYYMGWFRQAPGKEREEVATFYTGDGRTYYADSVKGRFTISADNSKNTAYLQMNSLKPEDTAVYYCAAWLNGGNRWGQGTLVTVSS | ≤ 0.174 nM | ≤ 1e-05 s⁻¹ | 57600 M⁻¹ s⁻¹ | 76.6 ratio | –
CD40L-34 (VHH) VHH: EVQLVESGGGLVQPGGSLRLSCAASGRTISNAAMGWFRQAPGKEREFVAAISFRGDSAIYADSVKGRFTISADNSKNTAYLQMNSLKPEDTAVYYCARDAAGDYYYNLDVWGQGTLVTVSS | 9.87 nM | 0.000637 s⁻¹ | 64500 M⁻¹ s⁻¹ | 76.7 ratio | –
CD40L-55 (VHH) VHH: EVQLVESGGGLVQPGGSLRLSCAASGLPFSTLHMGWFRQAPGKEREFVAAISRSGNLKAYADSVKGRFTISADNSKNTAYLQMNSLKPEDTAVYYCAADDYLGGDNWYLGPYDWGQGTLVTVSS | 10 nM | 0.0001 s⁻¹ | 10000 M⁻¹ s⁻¹ | 3.2 ratio | –
IL1RL1-34 (Fc fusion, not shown: a dimerising Fc or GST, VHH-Fc on IgG2 Fc) VHH: EVQLVESGGGLVQPGGSLRLSCAASGSTFSNAVMGWFRQAPGKEREFVAVIIDSRTTKYADSVKGRFTISADNSKNTAYLQMNSLKPEDTAVYYCAAVGGATTVTASEWDWGQGTLVTVSS | – | – | – | – | 476 MFI ratio
